Experimental data published in patent publication US20260001928A1 (CORTERIA PHARMACEUTICALS, priority 2022, published 2026).
*1 amine or outer side, *2 acyl side, *3 side chain or, on linkers, in order; H or OH if unused. Where no end group is shown, it is not given here. Side-chain parts run from the residue outwards. [ ]: non-standard residue; d: D form. The star is where a group is joined. C20 diacid = O=C(O)CCCCCCCCCCCCCCCCCCC(=O)*; C16 diacid = O=C(O)CCCCCCCCCCCCCCC(=O)*; γGlu = O=C(O)[C@H](CCC(=O)[*:2])N[*:1]; NMeI = CC[C@H](C)[C@H](NC)C(=O)O; Pentanoyl = CCCCC(=O)*; Aib = CC(C)(N)C(=O)O

B1: peptide of SEQ ID NO: 212 (peptide)
peptide: Ac-IVLSLD[dV]PIKLK([γGlu-C20 diacid])KILLEQEKQKAQREQAETN[Aib]QILAQV-NH2
SMILES: CC[C@H](C)[C@H](NC(C)=O)C(=O)N[C@H](C(=O)N[C@@H](CC(C)C)C(=O)N[C@@H](CO)C(=O)N[C@@H](CC(C)C)C(=O)N[C@@H](CC(=O)O)C(=O)N[C@@H](C(=O)N1CCC[C@H]1C(=O)N[C@H](C(=O)N[C@@H](CCCCN)C(=O)N[C@@H](CC(C)C)C(=O)N[C@@H](CCCCNC(=O)CC[C@H](NC(=O)CCCCCCCCCCCCCCCCCCC(=O)O)C(=O)O)C(=O)N[C@@H](CCCCN)C(=O)N[C@H](C(=O)N[C@@H](CC(C)C)C(=O)N[C@@H](CC(C)C)C(=O)N[C@@H](CCC(=O)O)C(=O)N[C@@H](CCC(N)=O)C(=O)N[C@@H](CCC(=O)O)C(=O)N[C@@H](CCCCN)C(=O)N[C@@H](CCC(N)=O)C(=O)N[C@@H](CCCCN)C(=O)N[C@@H](C)C(=O)N[C@@H](CCC(N)=O)C(=O)N[C@@H](CCCNC(=N)N)C(=O)N[C@@H](CCC(=O)O)C(=O)N[C@@H](CCC(N)=O)C(=O)N[C@@H](C)C(=O)N[C@@H](CCC(=O)O)C(=O)N[C@H](C(=O)N[C@@H](CC(N)=O)C(=O)NC(C)(C)C(=O)N[C@@H](CCC(N)=O)C(=O)N[C@H](C(=O)N[C@@H](CC(C)C)C(=O)N[C@@H](C)C(=O)N[C@@H](CCC(N)=O)C(=O)N[C@H](C(N)=O)C(C)C)[C@@H](C)CC)[C@@H](C)O)[C@@H](C)CC)[C@@H](C)CC)C(C)C)C(C)C
B2: peptide of SEQ ID NO: 217 (peptide)
peptide: [NMeI]VLSLD[dV]PIKLK([γGlu-C20 diacid])KILLEQEKQKAQREQAETN[Aib]QILAQV-NH2
modifications: N-terminus assumed
SMILES: CC[C@H](C)[C@H](NC)C(=O)N[C@H](C(=O)N[C@@H](CC(C)C)C(=O)N[C@@H](CO)C(=O)N[C@@H](CC(C)C)C(=O)N[C@@H](CC(=O)O)C(=O)N[C@@H](C(=O)N1CCC[C@H]1C(=O)N[C@H](C(=O)N[C@@H](CCCCN)C(=O)N[C@@H](CC(C)C)C(=O)N[C@@H](CCCCNC(=O)CC[C@H](NC(=O)CCCCCCCCCCCCCCCCCCC(=O)O)C(=O)O)C(=O)N[C@@H](CCCCN)C(=O)N[C@H](C(=O)N[C@@H](CC(C)C)C(=O)N[C@@H](CC(C)C)C(=O)N[C@@H](CCC(=O)O)C(=O)N[C@@H](CCC(N)=O)C(=O)N[C@@H](CCC(=O)O)C(=O)N[C@@H](CCCCN)C(=O)N[C@@H](CCC(N)=O)C(=O)N[C@@H](CCCCN)C(=O)N[C@@H](C)C(=O)N[C@@H](CCC(N)=O)C(=O)N[C@@H](CCCNC(=N)N)C(=O)N[C@@H](CCC(=O)O)C(=O)N[C@@H](CCC(N)=O)C(=O)N[C@@H](C)C(=O)N[C@@H](CCC(=O)O)C(=O)N[C@H](C(=O)N[C@@H](CC(N)=O)C(=O)NC(C)(C)C(=O)N[C@@H](CCC(N)=O)C(=O)N[C@H](C(=O)N[C@@H](CC(C)C)C(=O)N[C@@H](C)C(=O)N[C@@H](CCC(N)=O)C(=O)N[C@H](C(N)=O)C(C)C)[C@@H](C)CC)[C@@H](C)O)[C@@H](C)CC)[C@@H](C)CC)C(C)C)C(C)C
B3: peptide of SEQ ID NO: 222 (peptide)
peptide: Pentanoyl-VLSLD[dV]PIKLK([γGlu-C20 diacid])KILLEQEKQKAQREQAETN[Aib]QILAQV-NH2
SMILES: CCCCC(=O)N[C@H](C(=O)N[C@@H](CC(C)C)C(=O)N[C@@H](CO)C(=O)N[C@@H](CC(C)C)C(=O)N[C@@H](CC(=O)O)C(=O)N[C@@H](C(=O)N1CCC[C@H]1C(=O)N[C@H](C(=O)N[C@@H](CCCCN)C(=O)N[C@@H](CC(C)C)C(=O)N[C@@H](CCCCNC(=O)CC[C@H](NC(=O)CCCCCCCCCCCCCCCCCCC(=O)O)C(=O)O)C(=O)N[C@@H](CCCCN)C(=O)N[C@H](C(=O)N[C@@H](CC(C)C)C(=O)N[C@@H](CC(C)C)C(=O)N[C@@H](CCC(=O)O)C(=O)N[C@@H](CCC(N)=O)C(=O)N[C@@H](CCC(=O)O)C(=O)N[C@@H](CCCCN)C(=O)N[C@@H](CCC(N)=O)C(=O)N[C@@H](CCCCN)C(=O)N[C@@H](C)C(=O)N[C@@H](CCC(N)=O)C(=O)N[C@@H](CCCNC(=N)N)C(=O)N[C@@H](CCC(=O)O)C(=O)N[C@@H](CCC(N)=O)C(=O)N[C@@H](C)C(=O)N[C@@H](CCC(=O)O)C(=O)N[C@H](C(=O)N[C@@H](CC(N)=O)C(=O)NC(C)(C)C(=O)N[C@@H](CCC(N)=O)C(=O)N[C@H](C(=O)N[C@@H](CC(C)C)C(=O)N[C@@H](C)C(=O)N[C@@H](CCC(N)=O)C(=O)N[C@H](C(N)=O)C(C)C)[C@@H](C)CC)[C@@H](C)O)[C@@H](C)CC)[C@@H](C)CC)C(C)C)C(C)C
B4: peptide of SEQ ID NO: 218 (peptide)
peptide: [NMeI]VLSLD[dV]PIKLK([γGlu-C20 diacid])KILLEQEKQKEQREQAETN[Aib]QILAQV-NH2
modifications: N-terminus assumed
SMILES: CC[C@H](C)[C@H](NC)C(=O)N[C@H](C(=O)N[C@@H](CC(C)C)C(=O)N[C@@H](CO)C(=O)N[C@@H](CC(C)C)C(=O)N[C@@H](CC(=O)O)C(=O)N[C@@H](C(=O)N1CCC[C@H]1C(=O)N[C@H](C(=O)N[C@@H](CCCCN)C(=O)N[C@@H](CC(C)C)C(=O)N[C@@H](CCCCNC(=O)CC[C@H](NC(=O)CCCCCCCCCCCCCCCCCCC(=O)O)C(=O)O)C(=O)N[C@@H](CCCCN)C(=O)N[C@H](C(=O)N[C@@H](CC(C)C)C(=O)N[C@@H](CC(C)C)C(=O)N[C@@H](CCC(=O)O)C(=O)N[C@@H](CCC(N)=O)C(=O)N[C@@H](CCC(=O)O)C(=O)N[C@@H](CCCCN)C(=O)N[C@@H](CCC(N)=O)C(=O)N[C@@H](CCCCN)C(=O)N[C@@H](CCC(=O)O)C(=O)N[C@@H](CCC(N)=O)C(=O)N[C@@H](CCCNC(=N)N)C(=O)N[C@@H](CCC(=O)O)C(=O)N[C@@H](CCC(N)=O)C(=O)N[C@@H](C)C(=O)N[C@@H](CCC(=O)O)C(=O)N[C@H](C(=O)N[C@@H](CC(N)=O)C(=O)NC(C)(C)C(=O)N[C@@H](CCC(N)=O)C(=O)N[C@H](C(=O)N[C@@H](CC(C)C)C(=O)N[C@@H](C)C(=O)N[C@@H](CCC(N)=O)C(=O)N[C@H](C(N)=O)C(C)C)[C@@H](C)CC)[C@@H](C)O)[C@@H](C)CC)[C@@H](C)CC)C(C)C)C(C)C
B5: peptide of SEQ ID NO: 213 (peptide)
peptide: Ac-IVLSLD[dV]PIKLK([γGlu-C20 diacid])KILLEQEKQKEQREQAETN[Aib]QILAQV-NH2
SMILES: CC[C@H](C)[C@H](NC(C)=O)C(=O)N[C@H](C(=O)N[C@@H](CC(C)C)C(=O)N[C@@H](CO)C(=O)N[C@@H](CC(C)C)C(=O)N[C@@H](CC(=O)O)C(=O)N[C@@H](C(=O)N1CCC[C@H]1C(=O)N[C@H](C(=O)N[C@@H](CCCCN)C(=O)N[C@@H](CC(C)C)C(=O)N[C@@H](CCCCNC(=O)CC[C@H](NC(=O)CCCCCCCCCCCCCCCCCCC(=O)O)C(=O)O)C(=O)N[C@@H](CCCCN)C(=O)N[C@H](C(=O)N[C@@H](CC(C)C)C(=O)N[C@@H](CC(C)C)C(=O)N[C@@H](CCC(=O)O)C(=O)N[C@@H](CCC(N)=O)C(=O)N[C@@H](CCC(=O)O)C(=O)N[C@@H](CCCCN)C(=O)N[C@@H](CCC(N)=O)C(=O)N[C@@H](CCCCN)C(=O)N[C@@H](CCC(=O)O)C(=O)N[C@@H](CCC(N)=O)C(=O)N[C@@H](CCCNC(=N)N)C(=O)N[C@@H](CCC(=O)O)C(=O)N[C@@H](CCC(N)=O)C(=O)N[C@@H](C)C(=O)N[C@@H](CCC(=O)O)C(=O)N[C@H](C(=O)N[C@@H](CC(N)=O)C(=O)NC(C)(C)C(=O)N[C@@H](CCC(N)=O)C(=O)N[C@H](C(=O)N[C@@H](CC(C)C)C(=O)N[C@@H](C)C(=O)N[C@@H](CCC(N)=O)C(=O)N[C@H](C(N)=O)C(C)C)[C@@H](C)CC)[C@@H](C)O)[C@@H](C)CC)[C@@H](C)CC)C(C)C)C(C)C
B6: peptide of SEQ ID NO: 168 (peptide)
peptide: Ac-IVLSLD[dV]PIKLK([γGlu-C16 diacid])KILLEQEKQKEQREQAETN[Aib]QILAQV-NH2
SMILES: CC[C@H](C)[C@H](NC(C)=O)C(=O)N[C@H](C(=O)N[C@@H](CC(C)C)C(=O)N[C@@H](CO)C(=O)N[C@@H](CC(C)C)C(=O)N[C@@H](CC(=O)O)C(=O)N[C@@H](C(=O)N1CCC[C@H]1C(=O)N[C@H](C(=O)N[C@@H](CCCCN)C(=O)N[C@@H](CC(C)C)C(=O)N[C@@H](CCCCNC(=O)CC[C@H](NC(=O)CCCCCCCCCCCCCCC(=O)O)C(=O)O)C(=O)N[C@@H](CCCCN)C(=O)N[C@H](C(=O)N[C@@H](CC(C)C)C(=O)N[C@@H](CC(C)C)C(=O)N[C@@H](CCC(=O)O)C(=O)N[C@@H](CCC(N)=O)C(=O)N[C@@H](CCC(=O)O)C(=O)N[C@@H](CCCCN)C(=O)N[C@@H](CCC(N)=O)C(=O)N[C@@H](CCCCN)C(=O)N[C@@H](CCC(=O)O)C(=O)N[C@@H](CCC(N)=O)C(=O)N[C@@H](CCCNC(=N)N)C(=O)N[C@@H](CCC(=O)O)C(=O)N[C@@H](CCC(N)=O)C(=O)N[C@@H](C)C(=O)N[C@@H](CCC(=O)O)C(=O)N[C@H](C(=O)N[C@@H](CC(N)=O)C(=O)NC(C)(C)C(=O)N[C@@H](CCC(N)=O)C(=O)N[C@H](C(=O)N[C@@H](CC(C)C)C(=O)N[C@@H](C)C(=O)N[C@@H](CCC(N)=O)C(=O)N[C@H](C(N)=O)C(C)C)[C@@H](C)CC)[C@@H](C)O)[C@@H](C)CC)[C@@H](C)CC)C(C)C)C(C)C

Each binder was assayed against Rat CRF2 a (corticotropin-releasing factor receptor 2), on the A7R5 rat aortic smooth muscle cell line (rat, UniProt P47866 20-411) (assay: cell-based or functional assay).
Rat CRF2 a (corticotropin-releasing factor receptor 2), on the A7R5 rat aortic smooth muscle cell line, sequence (P47866 20-411): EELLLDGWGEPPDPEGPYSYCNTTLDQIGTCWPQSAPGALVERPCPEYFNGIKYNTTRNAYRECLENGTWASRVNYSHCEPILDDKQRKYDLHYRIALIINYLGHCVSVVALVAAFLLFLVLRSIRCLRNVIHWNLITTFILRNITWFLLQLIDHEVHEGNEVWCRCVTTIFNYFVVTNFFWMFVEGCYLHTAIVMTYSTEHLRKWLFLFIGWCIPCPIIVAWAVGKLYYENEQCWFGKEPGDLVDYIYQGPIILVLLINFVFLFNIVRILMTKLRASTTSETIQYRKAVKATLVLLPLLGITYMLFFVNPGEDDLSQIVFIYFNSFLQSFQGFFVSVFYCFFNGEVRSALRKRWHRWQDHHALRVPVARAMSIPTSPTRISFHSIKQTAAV
For B1, the “EC50 [nM] 0% HSA (cAMP, A7R5 rat aortic smooth muscle cells)” value (from here on “EC50 [nM] 0% HSA”) was 0.08 nM.
For B2, the “EC50 [nM] 0% HSA” value was 0.06 nM.
In the case of B3, the “EC50 [nM] 0% HSA” value is reported as 0.18 nM.
With B4 the “EC50 [nM] 0% HSA” value was 0.13 nM.
With B5 the “EC50 [nM] 0% HSA” value was 0.45 nM.
B6 was tested, and the “EC50 [nM] 0% HSA” value was 3.23 nM.
